# From patent US20220204611A1 (Amgen, published 2022)
# Positions count from the first letter of the chain named.
# T1: human TREM2 (human, UniProt Q9NZC2 19-174, limits assumed)
# T1 sequence: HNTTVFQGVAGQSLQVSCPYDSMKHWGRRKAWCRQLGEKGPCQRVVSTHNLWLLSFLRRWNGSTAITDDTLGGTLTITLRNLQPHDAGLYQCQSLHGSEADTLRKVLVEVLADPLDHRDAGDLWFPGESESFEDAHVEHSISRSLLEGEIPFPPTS
# B1: V6 (Fab, V domains shown)
# VH: EVQLVQSGAEVKKPGESLKISCKGSGYSFTSMWIAWVRQMPGKGLEWMGIIYPGDSDTRYSPSFQGQVTISADKSISTAYLQWSSLKASDTAMYFCARQRTFYYDSSDYFDYWGQGTLVTVSS
# VL: DIQMTQSPSSVSASVGDRVTITCRASQGISSWLAWYQQKPGKAPKLLIYAASSLQNGVPSRFSGSGSGTDFTLTISSLQPEDFATYFCQQADSFPRTFGQGTKLEIK
# B2: V35 (Fab, V domains shown)
# VH: B1 VH with M32Y
# VL: B1 VL with D92Y
# B3: V8 (Fab, V domains shown)
# VH: B1 VH with M32Y, R59K
# VL: B1 VL
# B4: V21 (Fab, V domains shown)
# VH: B1 VH with M32Y, Y109F
# VL: B1 VL
# B5: V67 (Fab, V domains shown)
# VH: B1 VH with M32Y, I50M
# VL: B1 VL
# B6: V20 (Fab, V domains shown)
# VH: B1 VH with M32Y, I50R
# VL: B1 VL
# B7: V19 (Fab, V domains shown)
# VH: B1 VH with M32S
# VL: B1 VL
# B8: V56 (Fab, V domains shown)
# VH: B1 VH with M32Y, S61Q
# VL: B1 VL
# B9: V46 (Fab, V domains shown)
# VH: B1 VH with M32Y
# VL: B1 VL with S53T
# B10: V30 (Fab, V domains shown)
# VH: B1 VH with Y27S, M32Y
# VL: B1 VL
# B11: V78 (Fab, V domains shown)
# VH: B1 VH with S28R, M32Y
# VL: B1 VL
# B12: V11 (Fab, V domains shown)
# VH: B1 VH with M32Y
# VL: B1 VL with D92A
# B13: V58 (Fab, V domains shown)
# VH: B1 VH with M32Y
# VL: B1 VL with A50K
# B14: V71 (Fab, V domains shown)
# VH: B1 VH with M32Y
# VL: B1 VL with F94E
# B15: V43 (Fab, V domains shown)
# VH: B1 VH with M32Y, D57G
# VL: B1 VL
# B16: V7 (Fab, V domains shown)
# VH: B1 VH with M32E
# VL: B1 VL
# B17: V42 (Fab, V domains shown)
# VH: B1 VH with M32A
# VL: B1 VL
# B18: V34 (Fab, V domains shown)
# VH: B1 VH with M32Y
# VL: B1 VL with N56D
# B19: V22 (Fab, V domains shown)
# VH: B1 VH with M32Y
# VL: B1 VL with A50R
# B20: V68 (Fab, V domains shown)
# VH: B1 VH with M32Y, Y103R
# VL: B1 VL
# B21: V55 (Fab, V domains shown)
# VH: B1 VH with M32Y, R59I, F64H
# VL: B1 VL
# B22: V54 (Fab, V domains shown)
# VH: B1 VH with M32Q
# VL: B1 VL
# B23: V45 (Fab, V domains shown)
# VH: B1 VH with M32Y
# VL: B1 VL with W32F
# B24: V59 (Fab, V domains shown)
# VH: B1 VH with M32Y
# VL: B1 VL with Q89M
# B25: V31 (Fab, V domains shown)
# VH: B1 VH with M32Y, D57E
# VL: B1 VL
# B26: V47 (Fab, V domains shown)
# VH: B1 VH with M32Y
# VL: B1 VL with R96M
# B27: V69 (Fab, V domains shown)
# VH: B1 VH with M32Y
# VL: B1 VL with W32Y
# B28: V18 (Fab, V domains shown)
# VH: B1 VH with M32Y, W33H
# VL: B1 VL
# B29: V23 (Fab, V domains shown)
# VH: B1 VH with M32Y
# VL: B1 VL with R96L
# B30: V57 (Fab, V domains shown)
# VH: B1 VH with M32Y
# VL: B1 VL with R24A
# B31: V66 (Fab, V domains shown)
# VH: B1 VH with Y27T, M32Y
# VL: B1 VL
# B32: V9 (Fab, V domains shown)
# VH: B1 VH with M32Y, T101G
# VL: B1 VL
# B33: V10 (Fab, V domains shown)
# VH: B1 VH with M32Y
# VL: B1 VL with A50S
# B34: V32 (Fab, V domains shown)
# VH: B1 VH with M32Y, P62N
# VL: B1 VL
# B35: V70 (Fab, V domains shown)
# VH: B1 VH with M32Y
# VL: B1 VL with S52G
# B36: V33 (Fab, V domains shown)
# VH: B1 VH with M32Y, Y104G
# VL: B1 VL
# B37: V44 (Fab, V domains shown)
# VH: B1 VH with M32Y, G54S
# VL: B1 VL
# Molecular target: T1, human TREM2
# Assay: yeast-displayed Fab FACS, 1st screen 110 nM
row,binding signal fold over 6E7 parental [fold],Binder
1,0.2,B1
2,0.21,B2
3,0.28,B3
4,0.76,B4
5,0.8,B5
6,0.18,B6
7,0.59,B7
8,0.23,B8
9,0.83,B9
10,0.79,B10
11,0.86,B11
12,0.79,B12
13,0.28,B13
14,0.37,B14
15,0.2,B15
16,0.11,B16
17,0.45,B17
18,0.34,B18
19,0.3,B19

row,binding signal fold over 6E7 parental [fold],Binder
1,0.44,B20
2,0.24,B21
3,0.55,B22
4,0.43,B23
5,0.19,B24
6,0.61,B25
7,0.42,B26
8,0.41,B27
9,0.17,B28
10,0.4,B29
11,0.84,B30
12,0.25,B31
13,0.67,B32
14,0.76,B33
15,0.82,B34
16,0.79,B35
17,0.23,B36
18,0.65,B37

# Molecular target: T1, human TREM2
# Assay: yeast-displayed Fab FACS, 2nd screen 100 nM
row,binding signal fold over 6E7 parental [fold],Binder
1,0.56,B1
2,0.29,B2
3,0.77,B3
4,0.68,B4
5,0.84,B5
6,0.52,B6
7,0.48,B7
8,0.59,B8
9,0.96,B9
10,0.72,B10
11,1.11,B11
12,0.42,B12
13,0.68,B13
14,0.48,B14
15,0.33,B15
16,0.32,B16
17,0.41,B17
18,1.02,B18
19,0.71,B19

row,binding signal fold over 6E7 parental [fold],Binder
1,0.43,B20
2,0.66,B21
3,0.54,B22
4,0.53,B23
5,0.6,B24
6,0.73,B25
7,0.47,B26
8,0.4,B27
9,0.42,B28
10,0.4,B29
11,0.85,B30
12,0.74,B31
13,0.54,B32
14,0.7,B33
15,0.89,B34
16,0.84,B35
17,0.34,B36
18,0.52,B37
